In this assay the target is SPR-8: ASARM-PO4 biotin. As to the kind of experiment: SPR (Biacore 3000): biotinylated ASARM-PO4 captured on neutravidin, PHEX as analyte. (In SPR one partner is held on a chip, and binding of the other changes the refractive index at the surface.)

This note sets out measurements from patent US20080076717A1.

The Kd is the free concentration of one partner at which half of the binding sites on the other are occupied at equilibrium, for simple one-to-one binding. Higher therefore signals a looser complex.

Take “PHEX (free soluble-PHEX analyte) (from UniProt P78562 46-749) (enzyme)”: the Kd was found to be 168 nM. This lies in the sub-micromolar range.
